T1: LONM (human mitochondrial matrix AAA+ protease) (human (endogenous in HeLa)) (UniProt P36776)
T1 sequence: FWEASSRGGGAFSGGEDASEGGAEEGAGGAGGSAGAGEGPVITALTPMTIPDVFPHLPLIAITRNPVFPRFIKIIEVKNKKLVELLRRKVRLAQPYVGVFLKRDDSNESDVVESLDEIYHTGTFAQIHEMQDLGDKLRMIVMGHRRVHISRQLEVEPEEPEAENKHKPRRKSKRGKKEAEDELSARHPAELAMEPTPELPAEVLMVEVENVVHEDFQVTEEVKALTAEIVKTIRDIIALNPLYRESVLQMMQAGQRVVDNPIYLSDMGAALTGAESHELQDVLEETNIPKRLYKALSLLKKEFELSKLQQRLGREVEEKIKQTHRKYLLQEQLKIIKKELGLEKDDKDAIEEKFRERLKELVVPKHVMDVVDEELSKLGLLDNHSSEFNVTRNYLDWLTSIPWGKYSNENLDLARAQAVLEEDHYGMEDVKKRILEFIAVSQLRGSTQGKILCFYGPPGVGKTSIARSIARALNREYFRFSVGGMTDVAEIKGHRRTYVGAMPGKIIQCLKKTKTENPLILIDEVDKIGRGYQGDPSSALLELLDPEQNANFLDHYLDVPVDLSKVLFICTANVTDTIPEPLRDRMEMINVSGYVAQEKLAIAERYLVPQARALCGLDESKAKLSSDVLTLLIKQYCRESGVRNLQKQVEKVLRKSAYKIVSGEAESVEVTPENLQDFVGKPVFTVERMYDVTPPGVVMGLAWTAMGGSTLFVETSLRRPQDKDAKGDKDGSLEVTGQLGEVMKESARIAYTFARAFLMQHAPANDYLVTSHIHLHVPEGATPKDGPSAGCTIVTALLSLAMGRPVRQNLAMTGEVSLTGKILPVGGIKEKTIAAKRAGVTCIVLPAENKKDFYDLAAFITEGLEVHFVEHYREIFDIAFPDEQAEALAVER


Target: T1, LONM (human mitochondrial matrix AAA+ protease) (human (endogenous in HeLa))

half-life of guanidine-unfolded MDH (MDHU) in in vitro degradation by purified recombinant LONM with ATP [min] | half-life of guanidine-unfolded OTC (OTCU) in in vitro degradation by purified recombinant LONM with ATP [min] | Binder
4 | – | Pig heart mitochondrial malate dehydrogenase (MDH) (natural protein) AKVAVLGASGGIGQPLSLLLKNSPLVSRLTLYDIAHTPGVAADLSHIETRATVKGYLGPEQLPDCLKGCDVVVIPAGVPRKPGMTRDDLFNTNATIVATLTAACAQHCPDAMICIISNPVNSTIPITAEVFKKHGVYNPNKIFGVTTLDIVRANAFVAELKGLDPARVSVPVIGGHAGKTIIPLISQCTPKVDFPQDQLSTLTGRIQEAGTEVVKAKAGAGSATLSMAYAGARFVFSLVDAMNGKEGVVECSFVKSQETDCPYFSTPLLLGKKGIEKNLGIGKISPFEEKMIAEAIPELKASIKKGEEFVKNMK
– | 15 | mature recombinant OTC (rat ornithine transcarbamylase) (natural protein) SQVQLKGRDLLTLKNFTGEEIQYMLWLSADLKFRIKQKGEYLPLLQGKSLGMIFEKRSTRTRLSTETGFALLGGHPSFLTTQDIHLGVNESLTDTARVLSSMTDAVLARVYKQSDLDILAKEATIPIVNGLSDLYHPIQILADYLTLQEHYGSLKGLTLSWIGDGNNILHSIMMSAAKFGMHLQAATPKGYEPDPNIVKLAEQYAKENGTRLSMTNDPLEAARGGNVLITDTWISMGQEDEKKKRLQAFQGYQVTMKTAKVAASDWTFLHCLPRKPEEVDDEVFYSPRSLVFPEAENRKWTIMAVMVSLLTDYSPVLQKPKF

Source: paper PMC4667172
